Experimental data: US20250327097A1, “ORGANISMS PRODUCING LESS CROTONIC ACID” (Global Bioenergies, priority 2021, published 2025)

B1: I283T-P284D-N287P-S322T-N388M-C430N-L432F-L434W-S436N-H461Y-dG462 (protein)
chain: MFLKSLREQINLLKRQGDLRIINRPVDSYLEAAAIIRRSTETKAPVPLMTNIKGYPGCSIVGGLAALSSNPEYPLSRVAMSLGLSTTASAQSIVQYLIDGLKKTPYLPVEIDSNSAPCKQNILRGEDASLAHFPIPQVHQHDGNRYVNTWGVFIVESPDGQWCNWSIQRVQYLNDRQMIALVFPSQHISDIWEEWVKIGKPMPYALVQGCEPIVPYIAGLPLLERNVNEAEYIGALYGKGIEVVKCETHDLRVPASSEVVIEGYFAITREGVEGPFGEFAGYTDNEPSLQPILSITAISWQDDPIWPVVAEGKPVDEYHTCTGIGDAAAIQNVLLTANLPVSFVWVPLYSACHLMIVSINRHWRQTHPDLTSEQLTKKVGDVIHQTRMSIKLPKIVVLDDDVDPADTESLLWALATRIHPERKRYFYESNIFPWLNCYSEEERHNRKGKRVIIDALLPENYGAISSFDYAYPDDIKQRVLMHWETDFSHD
B2: N388M-K394R-C430N-L432F-L434W-S436N-H444T (protein)
chain: MFLKSLREQINLLKRQGDLRIINRPVDSYLEAAAIIRRSTETKAPVPLMTNIKGYPGCSIVGGLAALSSNPEYPLSRVAMSLGLSTTASAQSIVQYLIDGLKKTPYLPVEIDSNSAPCKQNILRGEDASLAHFPIPQVHQHDGNRYVNTWGVFIVESPDGQWCNWSIQRVQYLNDRQMIALVFPSQHISDIWEEWVKIGKPMPYALVQGCEPIVPYIAGLPLLERNVNEAEYIGALYGKGIEVVKCETHDLRVPASSEVVIEGYFAITREGVEGPFGEFAGYIPNENSLQPILSITAISWQDDPIWPVVAEGKPVDEYHTCSGIGDAAAIQNVLLTANLPVSFVWVPLYSACHLMIVSINRHWRQTHPDLTSEQLTKKVGDVIHQTRMSIKLPRIVVLDDDVDPADTESLLWALATRIHPERKRYFYESNIFPWLNCYSEEERTNRKGKRVIIDALLPENHGAISSFDYAYPDDIKQRVLMHWETDFSHD
B3: I283T-P284D-N287P-S322T-N388M-C430N-L432F-L434W-S436N-H461A-dG462-S465I (protein)
chain: MFLKSLREQINLLKRQGDLRIINRPVDSYLEAAAIIRRSTETKAPVPLMTNIKGYPGCSIVGGLAALSSNPEYPLSRVAMSLGLSTTASAQSIVQYLIDGLKKTPYLPVEIDSNSAPCKQNILRGEDASLAHFPIPQVHQHDGNRYVNTWGVFIVESPDGQWCNWSIQRVQYLNDRQMIALVFPSQHISDIWEEWVKIGKPMPYALVQGCEPIVPYIAGLPLLERNVNEAEYIGALYGKGIEVVKCETHDLRVPASSEVVIEGYFAITREGVEGPFGEFAGYTDNEPSLQPILSITAISWQDDPIWPVVAEGKPVDEYHTCTGIGDAAAIQNVLLTANLPVSFVWVPLYSACHLMIVSINRHWRQTHPDLTSEQLTKKVGDVIHQTRMSIKLPKIVVLDDDVDPADTESLLWALATRIHPERKRYFYESNIFPWLNCYSEEERHNRKGKRVIIDALLPENAGAIISFDYAYPDDIKQRVLMHWETDFSHD
B4: I283T-P284D-N287P-S322T-N388M-C430N-L432F-L434W-S436N-H461V-dG462-S465V (protein)
chain: MFLKSLREQINLLKRQGDLRIINRPVDSYLEAAAIIRRSTETKAPVPLMTNIKGYPGCSIVGGLAALSSNPEYPLSRVAMSLGLSTTASAQSIVQYLIDGLKKTPYLPVEIDSNSAPCKQNILRGEDASLAHFPIPQVHQHDGNRYVNTWGVFIVESPDGQWCNWSIQRVQYLNDRQMIALVFPSQHISDIWEEWVKIGKPMPYALVQGCEPIVPYIAGLPLLERNVNEAEYIGALYGKGIEVVKCETHDLRVPASSEVVIEGYFAITREGVEGPFGEFAGYTDNEPSLQPILSITAISWQDDPIWPVVAEGKPVDEYHTCTGIGDAAAIQNVLLTANLPVSFVWVPLYSACHLMIVSINRHWRQTHPDLTSEQLTKKVGDVIHQTRMSIKLPKIVVLDDDVDPADTESLLWALATRIHPERKRYFYESNIFPWLNCYSEEERHNRKGKRVIIDALLPENVGAIVSFDYAYPDDIKQRVLMHWETDFSHD
B5: I283T-P284D-N287P-S322T-N388M-C430N-L432F-L434W-S436N-H461V-dG462-A463T (protein)
chain: MFLKSLREQINLLKRQGDLRIINRPVDSYLEAAAIIRRSTETKAPVPLMTNIKGYPGCSIVGGLAALSSNPEYPLSRVAMSLGLSTTASAQSIVQYLIDGLKKTPYLPVEIDSNSAPCKQNILRGEDASLAHFPIPQVHQHDGNRYVNTWGVFIVESPDGQWCNWSIQRVQYLNDRQMIALVFPSQHISDIWEEWVKIGKPMPYALVQGCEPIVPYIAGLPLLERNVNEAEYIGALYGKGIEVVKCETHDLRVPASSEVVIEGYFAITREGVEGPFGEFAGYTDNEPSLQPILSITAISWQDDPIWPVVAEGKPVDEYHTCTGIGDAAAIQNVLLTANLPVSFVWVPLYSACHLMIVSINRHWRQTHPDLTSEQLTKKVGDVIHQTRMSIKLPKIVVLDDDVDPADTESLLWALATRIHPERKRYFYESNIFPWLNCYSEEERHNRKGKRVIIDALLPENVGTISSFDYAYPDDIKQRVLMHWETDFSHD
B6: I283T-P284D-N287P-S322T-N388M-C430N-L432F-L434W-S436N-H461A-dG462-S465V (protein)
chain: MFLKSLREQINLLKRQGDLRIINRPVDSYLEAAAIIRRSTETKAPVPLMTNIKGYPGCSIVGGLAALSSNPEYPLSRVAMSLGLSTTASAQSIVQYLIDGLKKTPYLPVEIDSNSAPCKQNILRGEDASLAHFPIPQVHQHDGNRYVNTWGVFIVESPDGQWCNWSIQRVQYLNDRQMIALVFPSQHISDIWEEWVKIGKPMPYALVQGCEPIVPYIAGLPLLERNVNEAEYIGALYGKGIEVVKCETHDLRVPASSEVVIEGYFAITREGVEGPFGEFAGYTDNEPSLQPILSITAISWQDDPIWPVVAEGKPVDEYHTCTGIGDAAAIQNVLLTANLPVSFVWVPLYSACHLMIVSINRHWRQTHPDLTSEQLTKKVGDVIHQTRMSIKLPKIVVLDDDVDPADTESLLWALATRIHPERKRYFYESNIFPWLNCYSEEERHNRKGKRVIIDALLPENAGAIVSFDYAYPDDIKQRVLMHWETDFSHD
B7: I283T-P284D-N287P-S322T-N388M-C430N-L432F-L434W-S436N-H461Y-dG462-S465V (protein)
chain: MFLKSLREQINLLKRQGDLRIINRPVDSYLEAAAIIRRSTETKAPVPLMTNIKGYPGCSIVGGLAALSSNPEYPLSRVAMSLGLSTTASAQSIVQYLIDGLKKTPYLPVEIDSNSAPCKQNILRGEDASLAHFPIPQVHQHDGNRYVNTWGVFIVESPDGQWCNWSIQRVQYLNDRQMIALVFPSQHISDIWEEWVKIGKPMPYALVQGCEPIVPYIAGLPLLERNVNEAEYIGALYGKGIEVVKCETHDLRVPASSEVVIEGYFAITREGVEGPFGEFAGYTDNEPSLQPILSITAISWQDDPIWPVVAEGKPVDEYHTCTGIGDAAAIQNVLLTANLPVSFVWVPLYSACHLMIVSINRHWRQTHPDLTSEQLTKKVGDVIHQTRMSIKLPKIVVLDDDVDPADTESLLWALATRIHPERKRYFYESNIFPWLNCYSEEERHNRKGKRVIIDALLPENYGAIVSFDYAYPDDIKQRVLMHWETDFSHD
B8: I283T-P284D-N287P-S322T-N388M-C430N-L432F-L434W-S436N-dG462-A463S (protein)
chain: MFLKSLREQINLLKRQGDLRIINRPVDSYLEAAAIIRRSTETKAPVPLMTNIKGYPGCSIVGGLAALSSNPEYPLSRVAMSLGLSTTASAQSIVQYLIDGLKKTPYLPVEIDSNSAPCKQNILRGEDASLAHFPIPQVHQHDGNRYVNTWGVFIVESPDGQWCNWSIQRVQYLNDRQMIALVFPSQHISDIWEEWVKIGKPMPYALVQGCEPIVPYIAGLPLLERNVNEAEYIGALYGKGIEVVKCETHDLRVPASSEVVIEGYFAITREGVEGPFGEFAGYTDNEPSLQPILSITAISWQDDPIWPVVAEGKPVDEYHTCTGIGDAAAIQNVLLTANLPVSFVWVPLYSACHLMIVSINRHWRQTHPDLTSEQLTKKVGDVIHQTRMSIKLPKIVVLDDDVDPADTESLLWALATRIHPERKRYFYESNIFPWLNCYSEEERHNRKGKRVIIDALLPENHGSISSFDYAYPDDIKQRVLMHWETDFSHD
B9: I283T-P284D-N287P-S322T-N388M-C430N-L432F-L434W-S436N-H461A-dG462-A463T (protein)
chain: MFLKSLREQINLLKRQGDLRIINRPVDSYLEAAAIIRRSTETKAPVPLMTNIKGYPGCSIVGGLAALSSNPEYPLSRVAMSLGLSTTASAQSIVQYLIDGLKKTPYLPVEIDSNSAPCKQNILRGEDASLAHFPIPQVHQHDGNRYVNTWGVFIVESPDGQWCNWSIQRVQYLNDRQMIALVFPSQHISDIWEEWVKIGKPMPYALVQGCEPIVPYIAGLPLLERNVNEAEYIGALYGKGIEVVKCETHDLRVPASSEVVIEGYFAITREGVEGPFGEFAGYTDNEPSLQPILSITAISWQDDPIWPVVAEGKPVDEYHTCTGIGDAAAIQNVLLTANLPVSFVWVPLYSACHLMIVSINRHWRQTHPDLTSEQLTKKVGDVIHQTRMSIKLPKIVVLDDDVDPADTESLLWALATRIHPERKRYFYESNIFPWLNCYSEEERHNRKGKRVIIDALLPENAGTISSFDYAYPDDIKQRVLMHWETDFSHD
B10: I283T-P284D-N287P-S322T-N388M-C430N-L432F-L434W-S436N-H461Y-dG462-A463T (protein)
chain: MFLKSLREQINLLKRQGDLRIINRPVDSYLEAAAIIRRSTETKAPVPLMTNIKGYPGCSIVGGLAALSSNPEYPLSRVAMSLGLSTTASAQSIVQYLIDGLKKTPYLPVEIDSNSAPCKQNILRGEDASLAHFPIPQVHQHDGNRYVNTWGVFIVESPDGQWCNWSIQRVQYLNDRQMIALVFPSQHISDIWEEWVKIGKPMPYALVQGCEPIVPYIAGLPLLERNVNEAEYIGALYGKGIEVVKCETHDLRVPASSEVVIEGYFAITREGVEGPFGEFAGYTDNEPSLQPILSITAISWQDDPIWPVVAEGKPVDEYHTCTGIGDAAAIQNVLLTANLPVSFVWVPLYSACHLMIVSINRHWRQTHPDLTSEQLTKKVGDVIHQTRMSIKLPKIVVLDDDVDPADTESLLWALATRIHPERKRYFYESNIFPWLNCYSEEERHNRKGKRVIIDALLPENYGTISSFDYAYPDDIKQRVLMHWETDFSHD

Test system: 3-methylcrotonic acid
Assay type: biochemical, Yersinia frederiksenii
Parameters: key: “+” representing a low increase in activity; “++++” representing a high increase in activity

With B1 as the molecule, how does the “Activity relative to WT” value read?
The value was “++++”.

For B2, which “Activity relative to WT” value is on record?
The value was “+”.

With B3 as the molecule, how does the “Activity relative to WT” value read?
Its value is “++++”.

Which “Activity relative to WT” value does the source give for B4 here?
Its value is “++++”.

B5 was tested. Which “Activity relative to WT” value did it give?
The value was “++++”.

With B6 as the molecule, how does the “Activity relative to WT” value read?
Its value is “++++”.

B7 was tested. Which “Activity relative to WT” value did it give?
The value was “++++”.

With B8 as the molecule, how does the “Activity relative to WT” value read?
Its value is “++++”.

For B9, which “Activity relative to WT” value is on record?
Its value is “++++”.

With B10 as the molecule, how does the “Activity relative to WT” value read?
Its value is “++++”.
